Reference: patent US20240218070A1 (MERUS N V, published 2024)

T1: cynomolgus FAP (cyFAP) expressed on 293FF cells (cynomolgus, UniProt Q12884 1-760 (human entry))
T1 sequence: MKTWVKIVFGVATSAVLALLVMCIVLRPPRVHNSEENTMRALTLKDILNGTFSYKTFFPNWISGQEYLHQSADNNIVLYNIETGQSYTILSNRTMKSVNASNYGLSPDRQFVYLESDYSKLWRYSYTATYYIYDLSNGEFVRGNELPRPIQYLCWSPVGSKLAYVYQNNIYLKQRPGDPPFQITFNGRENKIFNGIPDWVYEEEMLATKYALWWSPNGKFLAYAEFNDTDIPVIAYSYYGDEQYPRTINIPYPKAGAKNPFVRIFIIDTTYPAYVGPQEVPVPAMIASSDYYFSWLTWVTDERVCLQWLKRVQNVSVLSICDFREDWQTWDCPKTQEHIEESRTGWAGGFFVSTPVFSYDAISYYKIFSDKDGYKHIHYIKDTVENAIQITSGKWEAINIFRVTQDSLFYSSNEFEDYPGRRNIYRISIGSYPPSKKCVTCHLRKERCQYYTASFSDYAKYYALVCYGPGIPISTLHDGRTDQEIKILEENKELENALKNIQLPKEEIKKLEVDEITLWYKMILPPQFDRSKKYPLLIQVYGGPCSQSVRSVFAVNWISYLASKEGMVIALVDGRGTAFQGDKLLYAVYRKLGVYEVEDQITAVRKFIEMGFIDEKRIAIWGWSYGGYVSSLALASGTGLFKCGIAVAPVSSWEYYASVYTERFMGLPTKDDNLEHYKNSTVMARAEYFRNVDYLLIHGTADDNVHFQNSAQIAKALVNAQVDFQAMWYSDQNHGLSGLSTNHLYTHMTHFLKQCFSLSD

B1: anti-human FAP bivalent monospecific IgG comprising heavy chain variable region SEQ ID NO: 11 (antibody, V domains shown)
VH: EVQLVESGGGLVQPGGSLRLSCAASGFTFSSYAMIWVRQAPGKGLEWVSAISGSGGYTFNADSVKGRFTMSRDNSKNTLYLQMNSLRAEDTAVYYCAKRDGGYEGGAFDIWGQGTLVTVSS
VL: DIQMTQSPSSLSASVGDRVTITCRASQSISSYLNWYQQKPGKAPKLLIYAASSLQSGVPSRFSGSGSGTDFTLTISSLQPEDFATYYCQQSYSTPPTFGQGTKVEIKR
notes: IgG1 format, common light chain VK1-39/JK1
B2: anti-human FAP bivalent monospecific IgG comprising heavy chain variable region SEQ ID NO: 69 (antibody, V domains shown)
VH: EVQLVETGGGLIQPGGSLRLSCAASGFTVSSNYMSWVRQAPGKGLEWVSVIYSGGSTYYADSVKGRFTISRDNSKNTLYLQMNSLRAEDTAVYYCARGPTDAYPYLDYLWGQGTLVTVSS
VL: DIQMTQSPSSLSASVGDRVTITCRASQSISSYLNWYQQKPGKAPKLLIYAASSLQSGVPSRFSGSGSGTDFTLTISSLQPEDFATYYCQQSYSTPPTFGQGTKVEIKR
notes: IgG1 format, common light chain VK1-39/JK1; also called human/mouse cross-reactive FAP IgG
B3: anti-human FAP bivalent monospecific IgG comprising heavy chain variable region SEQ ID NO: 15 (antibody, V domains shown)
VH: QLQLQESGPGLVKPSETLSLTCTVSGGSISSSSYFWAWIRQPPGKGLEFIGNIYYSGSTYYNPSLKSRVTISVDTSKNQFSLKLSSVTAADTAVYYCARPSYYGSGNYYFAFWGQGTLVTVSS
VL: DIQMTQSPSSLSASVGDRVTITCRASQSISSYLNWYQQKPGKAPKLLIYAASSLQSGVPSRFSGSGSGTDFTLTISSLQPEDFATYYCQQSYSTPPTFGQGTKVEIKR
notes: as for B1
B4: anti-human FAP bivalent monospecific IgG comprising heavy chain variable region SEQ ID NO: 19 (antibody, V domains shown)
VH: EVQLVESGGGLVKPGGSLRLSCAASGFPFNYAWMSWVRQAPGKGLEWVGRIKPKTSGGATDYAAPVKDRFTISRDDSRNTLYLQMNSLKTEDTAVYYCSAREDIWNFFFDLWGQGTLVTVSS
VL: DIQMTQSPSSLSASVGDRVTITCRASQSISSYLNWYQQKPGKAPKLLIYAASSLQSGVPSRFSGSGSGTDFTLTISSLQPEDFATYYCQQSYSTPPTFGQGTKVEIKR
notes: as for B1

Each binder was assayed against T1, cynomolgus FAP (cyFAP) expressed on … (assay: FACS, 293FF cells stably expressing cyFAP, IgG at 2.5 ug/ml).
Method: The binding of all test and control antibodies to the cells was tested at a single concentration of 2.5 ug/ml. Goat-anti-human IgG F(ab)2-PE (Invitrogen, H10104) was used as secondary antibody (1:100 in FACS buffer). Ab0625 was used at 10 ug/ml and its binding was detected using Ab0250 (Becton Dickinson, 550767) (1:100 in FACS buffer). The FACS buffer containing PBS (Gibco, cat. #10010-015), 0.5% BSA (Thermo Scientific, cat. #37525), and 2 mM EDTA (Invitrogen, cat. #15575-020) was kept ice cold throughout the assay.
The target cells were harvested, counted, and centrifuged for 5 min at 300 g at 4 °C. Cells were then resuspended in FACS buffer at a concentration of 1×10⁶ cells/ml and transferred (200,000 cells/well) to a U-bottom 96-well FACS plate (BD, cat. #353910). Cells were then centrifuged for 3 min at 300 g at 4° C. and supernatant was discarded. 50 μl of primary antibody solutions were added to the cells, mixed, and incubated for 30 min at 2-8° C. in the dark. Cells were washed by adding 150 μl FACS buffer and centrifuged for 3 min at 300 g at 4° C. Supernatant was discarded, and cells were washed again by adding 200 μl FACS buffer to the plate. Cells were then centrifuged for 3 min at 300 g at 4° C. and afterwards the supernatant was discarded. 50 μl of secondary antibody solutions were added to the cells, mixed, and incubated for 30 min at 2-8° C. in the dark. Cells were then washed by adding 150 μl FACS buffer to the plate and centrifuged for 3 min at 300 g at 4° ° C. Supernatant was discarded and cells were washed again by adding 200 μl FACS buffer to the plate and centrifuged for 3 min at 300 g at 4° C. Supernatant was discarded and cells were fixated by adding 100 μl/well ice-cold Fixation buffer (2% formaldehyde solution in PBS, Sigma-Aldrich, cat. #47608-250ML-F). Cells were incubated for 15 min on ice in the dark. Afterwards, 100 μl ice-cold PBS was added to the cells and cells were centrifuged for 3 at 300 g at 4° C. Supernatant was discarded and cells were resuspended in 120 μl FACS buffer.

| Binder | binding result |
| --- | --- |
| B1 | binds |
| B2 | binds |
| B3 | binds |
| B4 | binds |
